{"source": "patent US20250313631A1", "about": "(HUMMINGBIRD BIOSCIENCE PTE, published 2025)", "key": {"VISTA-Fc": {"target": "T1, VISTA-Fc (UniProt Q9H7M9 33-194)", "T1 construct": "also called VISTA-Ig; not shown: Fc/Ig part not described", "assay": "competition ELISA: VISTA-Fc coated, VSIG3-His 0.3 ug/ml as the blocked ligand, anti-His-HRP detection"}, "human PD-1": {"target": "human PD-1 (human, UniProt Q15116 25-167)", "assay": "ELISA, plate coated with the antigen"}, "human B7H3": {"target": "T2, human B7H3 (human, UniProt Q5ZPR3 29-461, limits assumed)", "T2 construct": "also called CD276", "T2 sequence (looked up)": "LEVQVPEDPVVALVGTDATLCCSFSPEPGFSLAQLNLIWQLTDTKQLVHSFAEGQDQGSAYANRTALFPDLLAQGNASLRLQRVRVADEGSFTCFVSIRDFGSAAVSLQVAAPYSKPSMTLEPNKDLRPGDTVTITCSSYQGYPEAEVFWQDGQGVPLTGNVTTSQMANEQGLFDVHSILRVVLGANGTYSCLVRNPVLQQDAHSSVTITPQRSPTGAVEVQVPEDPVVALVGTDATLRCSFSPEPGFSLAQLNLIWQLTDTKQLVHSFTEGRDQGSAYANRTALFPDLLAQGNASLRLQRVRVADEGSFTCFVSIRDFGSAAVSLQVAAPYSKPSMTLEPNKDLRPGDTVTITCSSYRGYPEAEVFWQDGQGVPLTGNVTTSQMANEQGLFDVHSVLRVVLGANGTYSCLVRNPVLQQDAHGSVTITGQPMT", "assay": "ELISA, plate coated with the antigen"}, "human B7H4 [1]": {"target": "T3, human B7H4 (human, UniProt Q7Z7D3 25-258, limits assumed)", "T3 construct": "also called VTCN1", "T3 sequence (looked up)": "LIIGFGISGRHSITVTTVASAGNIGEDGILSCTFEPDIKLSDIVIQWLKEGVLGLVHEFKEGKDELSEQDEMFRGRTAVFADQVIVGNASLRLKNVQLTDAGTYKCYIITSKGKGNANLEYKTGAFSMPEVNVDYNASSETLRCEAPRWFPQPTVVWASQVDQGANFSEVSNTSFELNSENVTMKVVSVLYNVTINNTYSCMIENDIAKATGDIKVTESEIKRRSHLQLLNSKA", "assay": "ELISA, plate coated with the antigen"}, "human B7H6": {"target": "T4, human B7H6 (human, UniProt Q68D85 25-262)", "T4 construct": "also called NCR3LG1", "T4 sequence (looked up)": "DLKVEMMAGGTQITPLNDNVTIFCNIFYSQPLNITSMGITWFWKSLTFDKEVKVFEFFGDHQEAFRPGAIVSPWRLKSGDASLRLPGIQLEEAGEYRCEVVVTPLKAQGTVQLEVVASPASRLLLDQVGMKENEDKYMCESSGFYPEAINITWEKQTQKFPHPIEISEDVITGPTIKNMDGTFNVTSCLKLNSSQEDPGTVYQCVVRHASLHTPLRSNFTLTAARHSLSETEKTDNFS", "assay": "ELISA, plate coated with the antigen"}, "human B7H7 [2]": {"target": "T5, human B7H7 (human, UniProt Q9UM44 23-344)", "T5 construct": "also called HHLA2", "T5 sequence (looked up)": "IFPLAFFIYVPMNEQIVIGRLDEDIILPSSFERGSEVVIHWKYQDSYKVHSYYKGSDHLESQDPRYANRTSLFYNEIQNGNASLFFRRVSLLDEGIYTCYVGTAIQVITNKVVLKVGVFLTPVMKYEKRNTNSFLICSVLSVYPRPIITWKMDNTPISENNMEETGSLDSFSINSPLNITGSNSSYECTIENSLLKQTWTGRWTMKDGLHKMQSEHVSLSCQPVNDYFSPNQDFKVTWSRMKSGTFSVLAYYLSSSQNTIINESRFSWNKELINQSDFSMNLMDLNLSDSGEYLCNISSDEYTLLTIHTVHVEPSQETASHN", "assay": "ELISA, plate coated with the antigen"}, "human CTLA4": {"target": "human CTLA4 (human, UniProt P16410 36-162)", "assay": "ELISA, plate coated with the antigen"}, "[3]": {"target": "T6, recombinant human VISTA (His-tagged) (human, UniProt Q9H7M9 33-194)", "T6 construct": "bought soluble protein (Sino Biological); also called hVISTA; human VISTA polypeptide", "assay": "antigen-binding ELISA; HMBD-002 in F6, day 20 at 40°C"}, "[4]": {"target": "T6, recombinant human VISTA (His-tagged)", "assay": "antigen-binding ELISA; HMBD-002 in F7, day 20 at 40°C"}, "[5]": {"target": "T6, recombinant human VISTA (His-tagged)", "assay": "antigen-binding ELISA; HMBD-002 in F9, day 20 at 40°C"}, "human B7H4 [6]": {"target": "T3, human B7H4", "assay": "ELISA, plate coated with human B7H4, antibody titrated"}, "human B7H7 [7]": {"target": "T5, human B7H7", "assay": "ELISA, plate coated with human B7H7, antibody titrated"}, "[8]": {"target": "T6, recombinant human VISTA (His-tagged)", "assay": "antigen-binding ELISA; reference standard run with the day 10 samples"}, "human PD-L1": {"target": "T7, human PD-L1 (human, UniProt Q9NZQ7 19-239)", "T7 construct": "captured through a His tag in the BLI experiments; also called hPD-L1; B7H1/PDL-1", "assay": "ELISA, plate coated with human B7H1 (PDL1), antibody titrated"}, "[9]": {"target": "T6, recombinant human VISTA (His-tagged)", "assay": "ELISA on coated human VISTA, antibody diluted in buffer of pH 7"}, "[10]": {"target": "T6, recombinant human VISTA (His-tagged)", "assay": "ELISA on coated human VISTA, antibody diluted in buffer of pH 6.5"}, "[11]": {"target": "T8, recombinant cynomolgus macaque VISTA (His-tagged) (cynomolgus macaque, UniProt A0A7N9IB00 33-194)", "T8 construct": "also called cyno VISTA; cynomolgus monkey VISTA", "assay": "SPR (Biacore), NHP VISTA-HIS captured, antibody as analyte, 1:1 model; SPR (Biacore), NHP (cynomolgus) VISTA"}}, "data": [{"binder": "anti-VISTA clone 4M2-C12 IgG1 (antibody, mouse variable regions on human IgG1/kappa constant regions; also called V4; V4pr) heavy: not shown light: DIVITQTPAILSTSPGEKVTMTCRASSSVGYIHWYQQKPGSSPKPWIYATSNLASGVPARFSGSGSGTSNSLTITRVEAEDAATYYCQQWSSYPPITFGGGTKLEVKRTVAAPSVFIFPPSDEQLKSGTASVVCLLNNFYPREAKVQWKVDNALQSGNSQESVTEQDSKDSTYSLSSTLTLSKADYEKHKVYACEVTHQGLSSPVTKSFNRGEC", "values": [{"measurement": "IC50 (read off the curve)", "setting": "VISTA-Fc", "value": "~4", "unit": "nM"}]}, {"binder": "anti-VISTA clone V4-C26 IgG1 (antibody) heavy: not shown light: EIVLTQSPATLSLSPGERATLSCRASSSVGYIHWYQQKPGQAPRPIIYTTSNRATGIPARFSGSGSGTDNTLTISSLEPEDSAVYYCQQWSSYPPITFGGGTKLEVKRTVAAPSVFIFPPSDEQLKSGTASVVCLLNNFYPREAKVQWKVDNALQSGNSQESVTEQDSKDSTYSLSSTLTLSKADYEKHKVYACEVTHQGLSSPVTKSFNRGEC", "values": [{"measurement": "binding result", "setting": "human PD-1", "value": "no binding (tested: log -7.5 M)"}, {"measurement": "binding result", "setting": "human B7H3", "value": "no binding (tested: log -7.5 M)"}, {"measurement": "binding result", "setting": "human B7H4 [1]", "value": "no binding (tested: log -7.5 M)"}, {"measurement": "binding result", "setting": "human B7H6", "value": "no binding (tested: log -7.5 M)"}, {"measurement": "binding result", "setting": "human B7H7 [2]", "value": "no binding (tested: log -7.5 M)"}, {"measurement": "binding result", "setting": "human CTLA4", "value": "no binding (tested: log -7.5 M)"}]}, {"binder": "V4-C26 hIgG4 (antibody, human IgG4 (S228P)/kappa format; also called HMBD-002; HMBD-002-V4C26) heavy: not shown light: EIVLTQSPATLSLSPGERATLSCRASSSVGYIHWYQQKPGQAPRPIIYTTSNRATGIPARFSGSGSGTDNTLTISSLEPEDSAVYYCQQWSSYPPITFGGGTKLEVKRTVAAPSVFIFPPSDEQLKSGTASVVCLLNNFYPREAKVQWKVDNALQSGNSQESVTEQDSKDSTYSLSSTLTLSKADYEKHKVYACEVTHQGLSSPVTKSFNRGEC", "values": [{"measurement": "EC50", "setting": "[3]", "value": 0.0186, "unit": "nM"}, {"measurement": "EC50", "setting": "[4]", "value": 0.0206, "unit": "nM"}, {"measurement": "EC50", "setting": "[5]", "value": 0.0223, "unit": "nM"}, {"measurement": "binding result", "setting": "human B7H4 [6]", "value": "no binding (tested: about 3e-8 M)"}, {"measurement": "binding result", "setting": "human B7H7 [7]", "value": "no binding (tested: about 3e-8 M)"}, {"measurement": "EC50", "setting": "[8]", "value": 0.0253, "unit": "nM"}, {"measurement": "binding result", "setting": "human PD-L1", "value": "no binding (tested: about 3e-8 M)"}, {"measurement": "EC50", "setting": "[9]", "value": 0.0343, "unit": "nM"}, {"measurement": "EC50", "setting": "[10]", "value": 0.0363, "unit": "nM"}, {"measurement": "Kd", "setting": "[11]", "value": 0.367, "unit": "nM"}]}]}
